Values quoted from earlier work in paper PMC4081073.

Target: EcoRI restriction endonuclease (Escherichia coli) (UniProt P00642)

Kd: 100 nM
Substance: EcoRI restriction endonuclease (from UniProt P00642)
